Results from US20230414780A1 (VECT HORUS, published 2023).
Numbering of substitutions follows the chain as printed.

B1: C5^V20 (VHH)
VHH: EVQLVESGGGVVQPGGSLKLSCVASGHDFSINFIRWYRQAPGKQREFVAGFTATGNTNYADSMKGRFTISRDNTKNAVYLQIDSLKPEDTAVYYCYMLDKWGQGTQVTVSS
B2: C5^V21 (VHH)
VHH: B1 VHH with H27T, F51W
B3: C5^V22 (VHH)
VHH: B1 VHH with H27T, F51Y
B4: C5^V23 (VHH)
VHH: B1 VHH with H27T, Y96H
B5: C5^V24 (VHH)
VHH: B1 VHH with H27T, Y96W
B6: C5^V25 (VHH)
VHH: B1 VHH with H27T, M97L
B7: C5^V26 (VHH)
VHH: B1 VHH with H27T, M97V
B8: C5^V28 (VHH)
VHH: B1 VHH with H27A, T52S
B9: C5^h11 (VHH)
VHH: EVQLVESGGGVVQPGGSLRLSCAASGTDFSINFIRWVRQAPGKGLEWVAGFTATGNTNYADSMKGRFTISRDNTKNTLYLQMNSLRPEDTAVYYCYMLDKWGQGTQVTVSS
B10: C5^h12 (VHH)
VHH: B9 VHH with V37Y, W47F, M63V, T74A, M82I, N83D
B11: C5^h13 (VHH)
VHH: B9 VHH with V37Y, W47F, M63V
B12: C5^h21 (VHH)
VHH: B9 VHH with V37Y, W47F, M63V, T74A, R86K
B13: C5^h23 (VHH)
VHH: B9 VHH with G44Q, L45R, W47F, M63V, T74A
B14: C5^h24 (VHH)
VHH: B9 VHH with V37Y, W47F, T74A
B15: C5^h26 (VHH)
VHH: B9 VHH with V37Y, M63V, T74A, M82I, N83D
B16: VHH A10 (C5^V10) (VHH)
VHH: B1 VHH with H27T, I31L
B17: VHH A14 (C5^V14) (VHH)
VHH: B1 VHH with H27T, T57S
B18: C5^h16 (VHH)
VHH: B9 VHH with V11L, V37Y, W47F, M63V, T74S, P87A, Q106L
B19: B8^V2 (VHH)
VHH: EVQLVESGGGVVQPGGSLRLSCAASGEIFSINFMRWYGQAPGKQREWVAGFTRDGSTNYPDSAKGRFTISRDNAKNTVYLQIDSLKPEDTAVYYCYMLDTWGQGTQVTVSS
B20: B8^V4 (VHH)
VHH: B19 VHH with G38R, G42I
B21: B8^V5 (VHH)
VHH: B19 VHH with G38R, Q44I
B22: B8^V6 (VHH)
VHH: B19 VHH with G38R, S56F
B23: B8^V7 (VHH)
VHH: B19 VHH with G38R, S56Y
B24: B8^V8 (VHH)
VHH: B19 VHH with G38R, T57L
B25: B8^V9 (VHH)
VHH: B19 VHH with G38R, T57K
B26: B8^V11 (VHH)
VHH: B19 VHH with G26D, G38R
B27: B8^V14 (VHH)
VHH: B19 VHH with G38R, D54L
B28: B8^V15 (VHH)
VHH: B19 VHH with G38R, G55D
B29: B8^V17 (VHH)
VHH: B19 VHH with G38R, W47F
B30: B8^V18 (VHH)
VHH: B19 VHH with F29H, G38R
B31: B8^V19 (VHH)
VHH: B19 VHH with G38R, E46H
B32: B8^V20 (VHH)
VHH: B19 VHH with G38R, T57H
B33: B8^V21 (VHH)
VHH: B19 VHH with F33N, G38R
B34: B8^V23 (VHH)
VHH: B19 VHH with R35I, G38R
B35: C5^h8 (VHH)
VHH: B9 VHH with M63V, M82I, N83D
B36: C5^h10 (VHH)
VHH: B9 VHH with R19K, M63V, M82I
B37: C5^h14 (VHH)
VHH: B9 VHH with M63V, T77A
B38: C5^h15 (VHH)
VHH: B9 VHH with A23V, M63V, N83D
B39: C5^h17 (VHH)
VHH: B1 VHH with H27T, Y37V, Q44G, R45L, V78L, K86R
B40: VHH A21 (C5^h2) (VHH)
VHH: B9 VHH with G44Q, L45R, W47F, M63V, T74A
B41: VHH A24 (C5^h5) (VHH)
VHH: B9 VHH with M63V, T74A

Target: T1, rhesus monkey transferrin receptor (rhTfR) fused to EGFP, on CHO cells (rhesus monkey)
T1 construct: whole, on cells; also called rhesus monkey TfR
Assay: apparent Kd, flow cytometry, CHO cells
Description: (§1) The binding properties of VHHs with affinity for the TfR from different species (i.e., human (h), mouse (m) and rhesus monkey (rh)) were tested using flow cytometry, and apparent affinities (Kd app) were determined. All experiments were performed in 96 well plates using 2×10⁵ cells/well, at 4° C. with shaking. CHO cell lines expressing the hTfR, mTfR or rhTfR fused to EGFP were saturated with PBS/BSA 2% solution during 30 min to avoid nonspecific binding, followed by incubation with purified VHHs at increasing concentrations for 1 hr. After one wash in PBS/BSA 2%, cells were incubated for 1 hr with an anti-6His tag antibody (mouse), washed twice with PBS/BSA 2%, and incubated for 1 hr with an Alexa647-conjugated anti-mouse secondary antibody. After two last washes in PBS/BSA 2%, cells were fixed by incubation for 15 min with PBS/PFA 2%, washed once with PBS and finally resuspended in PBS. Fluorescence levels were assessed using an Attune NxT flow cytometer (Thermo Fisher Scientific). Experimental data were fitted with GraphPad Prism® software using a nonlinear fit to determine the apparent Kd constants. […] Table 5 hereafter summarizes apparent Kd obtained for the tested VHHs.

Binder	Kd
B1	6.1 nM
B2	8.2 nM
B3	11 nM
B4	353 nM
B5	564 nM
B6	429 nM
B7	335 nM
B8	371 nM
B9	1240 nM
B10	361 nM
B11	730 nM
B12	1010 nM
B13	2000 nM
B14	641 nM
B15	656 nM
B16	5.1 nM
B17	3.9 nM

Binder	Kd
B18	760 nM
B19	0.1 nM
B20	0.3 nM
B21	2.1 nM
B22	2.7 nM
B23	2.6 nM
B24	2.1 nM
B25	2.4 nM
B26	2 nM
B27	1.9 nM
B28	4.3 nM
B29	2.5 nM
B30	1.6 nM
B31	2.3 nM
B32	1.8 nM
B33	469 nM
B34	939 nM

Target: T2, mouse transferrin receptor (mTfR) fused to EGFP, on CHO cells (mouse, UniProt Q62351 1-763)
T2 construct: whole, on cells; also called mouse TfR; CHO-mTfR-EGFP; not shown: EGFP
Assay: apparent Kd, flow cytometry, CHO cells
Description: as §1

T2 sequence (Q62351 whole entry, the tested form may be a part): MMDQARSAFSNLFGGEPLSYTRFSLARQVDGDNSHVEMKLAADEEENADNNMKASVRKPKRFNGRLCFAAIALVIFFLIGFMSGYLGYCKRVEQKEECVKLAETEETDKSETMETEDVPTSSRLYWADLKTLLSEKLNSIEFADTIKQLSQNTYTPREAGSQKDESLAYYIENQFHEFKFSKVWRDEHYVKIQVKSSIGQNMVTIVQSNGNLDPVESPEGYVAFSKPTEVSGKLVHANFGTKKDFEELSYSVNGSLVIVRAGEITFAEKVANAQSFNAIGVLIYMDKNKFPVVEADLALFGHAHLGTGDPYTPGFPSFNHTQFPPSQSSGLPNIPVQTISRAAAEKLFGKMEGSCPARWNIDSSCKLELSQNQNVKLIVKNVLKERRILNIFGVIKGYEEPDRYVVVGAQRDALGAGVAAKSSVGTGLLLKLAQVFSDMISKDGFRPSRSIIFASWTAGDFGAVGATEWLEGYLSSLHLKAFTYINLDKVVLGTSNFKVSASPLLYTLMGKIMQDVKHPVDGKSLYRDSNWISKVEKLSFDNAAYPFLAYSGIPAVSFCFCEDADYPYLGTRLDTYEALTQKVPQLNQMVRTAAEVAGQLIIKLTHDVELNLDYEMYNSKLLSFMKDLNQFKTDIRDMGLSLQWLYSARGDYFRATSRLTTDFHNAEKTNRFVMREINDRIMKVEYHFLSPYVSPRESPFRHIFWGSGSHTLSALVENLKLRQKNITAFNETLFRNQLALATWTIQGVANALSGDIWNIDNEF

Binder	Kd
B1	125 nM
B2	120 nM
B3	131 nM
B4	254 nM
B5	218 nM
B6	136 nM
B7	211 nM
B8	160 nM
B35	656 nM
B36	845 nM
B9	1370 nM
B10	331 nM
B11	554 nM
B37	164 nM
B38	452 nM
B39	898 nM
B12	600 nM
B13	1540 nM
B14	624 nM
B15	675 nM

Binder	Kd
B16	159 nM
B17	158 nM
B40	225 nM
B18	582 nM
B19	0.2 nM
B20	0.6 nM
B21	3.8 nM
B22	16 nM
B23	41 nM
B24	8.1 nM
B25	31 nM
B26	22 nM
B27	41 nM
B28	684 nM
B29	5.2 nM
B30	43 nM
B31	7.6 nM
B32	6.4 nM
B33	3350 nM
B34	1550 nM

Target: T3, human transferrin receptor (hTfR) fused to EGFP, on CHO cells (human, UniProt P02786 1-760)
T3 construct: whole, on cells; also called human TfR; CHO-hTfR-EGFP; not shown: EGFP from pEGFP-C1 vector, fused to the N-terminal (intracellular) end of hTfR
Assay: apparent Kd, flow cytometry, CHO cells
Description: as §1

T3 sequence (P02786 whole entry, the tested form may be a part): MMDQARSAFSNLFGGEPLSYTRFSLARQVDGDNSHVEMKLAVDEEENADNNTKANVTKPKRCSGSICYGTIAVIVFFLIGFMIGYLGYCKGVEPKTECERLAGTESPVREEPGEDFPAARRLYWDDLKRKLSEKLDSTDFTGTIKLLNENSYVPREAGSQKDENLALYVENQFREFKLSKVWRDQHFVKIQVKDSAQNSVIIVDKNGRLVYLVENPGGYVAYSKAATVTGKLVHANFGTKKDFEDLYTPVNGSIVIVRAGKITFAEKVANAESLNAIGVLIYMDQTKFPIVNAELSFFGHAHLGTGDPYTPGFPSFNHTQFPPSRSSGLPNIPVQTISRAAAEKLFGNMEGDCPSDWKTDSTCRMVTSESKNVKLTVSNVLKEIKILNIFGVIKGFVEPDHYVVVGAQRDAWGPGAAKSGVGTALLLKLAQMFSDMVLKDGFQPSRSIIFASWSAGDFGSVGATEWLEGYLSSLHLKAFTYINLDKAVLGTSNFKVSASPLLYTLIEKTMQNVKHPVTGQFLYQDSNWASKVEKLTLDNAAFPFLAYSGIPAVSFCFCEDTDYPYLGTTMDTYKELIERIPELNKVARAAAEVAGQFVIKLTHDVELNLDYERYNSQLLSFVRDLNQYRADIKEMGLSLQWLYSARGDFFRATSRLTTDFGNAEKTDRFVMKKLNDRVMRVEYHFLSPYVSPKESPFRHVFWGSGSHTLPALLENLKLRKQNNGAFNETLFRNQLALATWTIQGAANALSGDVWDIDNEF

Binder	Kd
B1	2.5 nM
B2	2.4 nM
B3	2.7 nM
B4	4.5 nM
B5	4.3 nM
B6	4.5 nM
B7	7.9 nM
B8	3.3 nM
B35	987 nM
B36	1070 nM
B9	1130 nM
B10	4.3 nM
B11	8.3 nM
B37	1100 nM
B38	1090 nM
B39	630 nM
B12	8.8 nM
B13	594 nM
B14	4.1 nM
B15	4 nM
B16	3.4 nM

Binder	Kd
B17	3.3 nM
B40	267 nM
B41	193 nM
B18	8.1 nM
B19	0.1 nM
B20	0.4 nM
B21	2.3 nM
B22	3.8 nM
B23	5.7 nM
B24	2.5 nM
B25	2.8 nM
B26	4.6 nM
B27	4.8 nM
B28	4.7 nM
B29	4.8 nM
B30	3.8 nM
B31	6.2 nM
B32	4.5 nM
B33	29 nM
B34	29 nM
